Measurements: a protein production outcome set (Wang et al. 2014)

Assay: label from the status in PepcDB records

Row | Sequence | protein production
1 | MARFALVLHAHLPYVRAHGMWPFGEETLYEAMAETYLPLIRVLERLRAEGVEAPFTLGITPILAEQLADARIKEGFWAYAKDRLERAQGDYQRYRGTALEASARHQVAFWELTLDHFQRLSGDLVAAFRKAEEGGQVELITSNATHGYSPLLGYDEALWAQIKTGVSTYRRHFAKDPTGFWLPEMAYRPKGPWKPPVEGPPEGVRPGVDELLMRAGIRYTFVDAHLVQGGEPLSPYGEAALGPVESQEATYHVHELESGLRVLARNPETTLQVWSADYGYPGEGLYREFHRKDPLSGLHHWRVTHRKADLAEKAPYDPEAAFAKTEEHARHFVGLLERLAGRHPEGVILSPYDAELFGHWWYEGVAWLEAVLRLLAQNPKVRPVTAREAVQGPAVRTALPEGSWGRGGDHRVWLNEKTLDYWEKVYRAEGAMREAARRGVLPEGVLRQAMRELLLLEASDWPFLMETGQAEAYARERYEEHARAFFHLLKGASPEELRALEERDNPFPEADPRLYLFREA | not failed
2 | MAFLTNDDVVLICDKNYDCPTKIQSVRQKDTTCVAFRPWSQTCEFAVGCAAGICLWSDSRRLNANRNIRRMMGTHHLQVLQDKGHNYVTSMQWNEDGTILVTAAFGSSHIMLWEPDCQQKIRLIPNPKSLGSFSLLRFSPDFHVLFCASCDAGASLCQLNRSKWKLKQILGQQRIQSAVWTTCGSTLLYACYGSTRVYSCTSDGEDSVFLRPQSIWRVQLIMDLQLVTTCAGQRLCCGEPQCLAMDPLGIYMASIFKEQSFVLLCILHTSRWGNVKLLPVEFIYCDMDGDQYPAYISFGVLKAEIRFLIIAWNTGHFQRYDITAQCFRDAQLYHNIN | failed
3 | MVLIGTVVNGAAIVIAALIGLLVKNIPERVKTTLMQAIGLAIVLLGVKMGLQTEQFLIVICSLVIGGVIGEMINLEKRLDHLGRWIESKVGGKKDGSIATAFVTTTLIYVVGAMAVLGALDSGLRGDHSVLLTKALLDGFLAILFTSTLGIGVLFSAIPVVLYQGSIALFASQIDQYVPTALMDSFITEMSATGGVMIVAIGLNLLNVVNIRVANLLPSLVIVAVLVTFVYKGFPF | failed
4 | MHFKKSLVRSLITLAITATASTTVLANEVSGDISKFKSVGNEVNTKQKATGYIVQLKGKTAIAQAQEIGELLPTNQLVANTGNRYNAHTPAMEAYTKALENKQKQVASSIDSINILHSFKHTYNGFTAKLNAKQKAQLESHPDVIGVYEDKLETVNTANTPEFLGLTGAGGQHAMNIKGEGVIIGVIDTGVWPENPSFADDGSYSDPADLGWLGSCDTGTDEEFACNNKLIGAKYFDSSFSSQYDIQYDLGEFDSPRDADGHGSHTASTAGGNESVAAMLSGTPVGTVSGMAPRARIAAYKVCWNSDYKNPEGGDEAGCFGGDTMAAIDAAVTDGVDVINYSIGGSRTDLTVPATAAMLNATAAGVFVAVSAGNDGPDKETVGTPAPWVTSVAASTYNGTSAIVGKALDITSGTLAGSSILSVPSGFSPATVGLSGELALAEPVQACNDAPLTNGEDLAGKIALIARGSCAFTEKFLNAQNAGAVGAIIYTTEGTSPFSMGGTDPAVTITGSMISFADGQSLTASIEDGSTSVAFTDNTAAGEAVEVGNTMADFSSRGPNLNTYDIIKPDITAPGVKILAATTSAPMFGTQGETFKYLQGTSMSSPHIAGLAALFKESNSSWSPAQIKSAMMTTARQNLTKEDGTTQADPYDFGSGHVAPVSALDPGLLFDTNLADYLAFLCGQDKEAFVSGYDTSCADLATAGFSTDASQLNLASIAIAELLEPETIFRTVSNATPIASSYTATVEAPAGFDISVQTFDAAGEETEASTLDVAAEGGKASFAITVSQTETTEIEAWKFGAITWTDGAGHSVRLPLAIKAIPSVQIEVPELISGDLNRGRFRFPVKMLYSGRTSIKHAGLVAPFGTAGTVEADPAQEFEFLGAGTNYHLFHIPEGTQVARFSLSDALVTEEGSDLDLYVYRCDKWSCAQVANSLNGGSNEDVVLTNPEPRADVDVGDVYVTMIHGYSTGAATETDYTMVGWIADQAERTTRVISSRRAINGRFNYTSILTRGLPTGTTYMGAVTYFNAEGEAEGTTVLELKN | failed
5 | MAGLLSGLPMTSALVMLFLSLEQGAVFASMAVPGALAGLAAIQATYLFYFLVTRRVSAVAGCVLALALYGATAFLMNLSGSLALSILFTLLMVALIIVATSKQTPPAAAPYVALPRWVIPMRMLTATLLLLAITASATWLGPVVSGLLAPIPVIAWPLAVFVHVQGGRYELAAIIRGNAIGAVGVLSFYLTLRYSLLQWGALLSITTAVLLAVVVTAVLARLLAKR | failed
6 | MQDIFEEIIDYLKGIWLKRRYIIIATWLICPIGWYFVAAMPNVYQSEARVYVDTQSLLRPLLKGLTVETNPDTQIRLMVKTLLSRPNLERISRMTDLDVQASTPAQYEAIIKNLKDNIKISSARRENIYTLSIEDEDPEMAKNIVRSALTVFIENTLGETRSDSDSAQKFLNTQIKDYENRLSNSEARLTSFKQKYSGILPDQSGGYYAKLNGNREKLKAIELDLLENKTRLDSAKKQLAQSVVADTGSDNKIKSENSIQTTYDDRINELEVLLDNLKLRYTEKHPDVIETSRNLEHLNKLRSSEIEKYLAQNNENTGSLKRLSANPVIQEVQIHVNQLENLIASLNVRADNYRQRIIELENRVHTLPEIEAELIALNRGYGITKEKYEELLSRKETAQLAQQADETTDKIQFRVIDPPRKATKPSGPKRFLLFGVVTLIGFAVGIGLSLLMSQLNPVATSTAQLSKITGVPIFGVISANENLGLQQWHKKKTFIFIGSNVLLLCLLVLFVSYFLFPDTIQAPLKRIF | failed
7 | MEGISIYTSDNYTEEMGSGDYDSMKEPCFREENANFNKIFLPTIYSIIFLTGIVGNGLVILVMGYQKKLRSMTDKYRLHLSVADLLFVITLPFWAVDAVANWYFGNFLCKAVHVIYTVNLYSSVLILAFISLDRYLAIVHATNSQRPRKLLAEKVVYVGVWIPALLLTIPDFIFANVSEADDRYICDRFYPNDLWVVVFQFQHIMVGLILPGIVILSCYCIIISKLSHSKGHQKRKALKTTVILILAFFACWLPYYIGISIDSFILLEIIKQGCEFENTVHKWISITEALAFFHCCLNPILYAFLGAKFKTSAQHALTSVSRGSSLKILSKGKRGGHSSVSTESESSSFHSS | not failed
8 | MTPAELISRLEEAWLNEKFSPELLENKSELVECVMEQLTHMEENLQRVRKGDLKASVHRMEIDRIRFVLSSFLRSRLKKIEKFFPHVLEKEKSRADGDPSFLSPEEFAFAKEYLANTEVYLRAVALKHMPPNLQSVDMMKAVPEPCLDSFVFLRVKEKQENILVEPETDEQREYVVDLDEGSQHLMRYRTIAPLVASGAVQLI | failed
9 | MADTITVSIVLAYFVVTLALGFFAARKIKTAEHYYGARKLFGMFVTAVAVFSGIASAFTFIGGPGLVYPMGGTVNWVIWTPVISMPLIWYLLGKRIKLITEARPVATLPDLTAARFKSDAVRFLTAVALIFGIITYLAGNVMGAGLVLTDMLGTPLELSIAIVFGIIMLYTAFGGMVASILTDFFQGLVMMVAAIIFVVFILIMTGGVENLFATIAESNPRHIDPIGVGPIWLGIMGWWWALNIGSSVQPHAVTKFFALKDYRDLKWGALVTTIAWTLACLMWFFGGYASVWVVIKGLAEAPARSDQAIFGVIAQMPVVLKAVIYAGVLAAIMSTVSGFISMGTAAVVRDIPTAIGKSLSQRGQILWGRVVTVILTVVAALFGYYGGYVVGILVTLGLGYFASMLFPLLVIGLNWKRATKEAAIITTALTVAMNLGFLVYEKVLSMSLPYGLPGYGVTFAVGIITMVLVSLITKGAALDDMDEDIRAAMSL | failed
10 | MKPALVVVDMVNEFIHGRLATPEAMKTVGPARKVIETFRRSGLPVVYVNDSHYPDDPEIRIWGRHSMKGDDGSEVIDEIRPSAGDYVLEKHAYSGFYGTNLDMILRANGIDTVVLIGLDADICVRHTAADALYRNYRIIVVEDAVAARIDPNWKDYFTRVYGATVKRSDEIEGMLQEDQIET | not failed
11 | MSAPCCGCGKTLDVAAMHARQRRVLWWVLAINAGSFALMLAGALHSGAASLLSGSLDNLGDALTYALSLAVVGASMAAKARVALLKAGLILLAALAVAAEIGWKLAHPQVPLFQSMGLVAAANFLANLVCLRLLWPYRDGDINLASAWACSRNDVYEGVAVLAASGAVWALGSGWPDLLIAVGLLVVFLRSAWQVARRAWAELGTAG | failed
12 | MPDIDAGPRCRDAGSRMFRLAHLTDPHVGPLPRPRLRQLLSKRAAGYVNWRRGRSRHHDMDLLGALIADLHGQGVDHVACTGDLCNLGLPDEWESARVFLEALGPADRVSFVPGNHDAYVRGSLEGLLAACGGWTEADDGQIRLFPYLRRRGPLALVGLSSAIPTKPFVASGRLGPVQIEAAERVLRDLATAPDRPCRVVMIHHPPHPGGAASGRELKDAAAFAAMIGRAGADLILHGHNHVGTVARITGPDGRPVPVVGAPSASARTLLTNRRASYYLYTVTPGENGFQIAVTERGLDEAGGIGELSGFDIETPPADRIGLVHRRRQRHT | failed
13 | MKNIIPQALLTMPILSTGLQAQEKQPTPNLVFIMADQYRGDAIGCIGKEPVKTPHLDKLASEGINFTNAISSYPVSSPARGMLMTGMYPIGSKVTGNCNSETAPYGVELSQNARCWSDVLKDQGYNMGYIGKWHLDAPYKPYVDTYNNRGKVAWNEWCPPERRHGFDHWIAYGTYDYHLKPMYWNTTAPRDSFYYVNQWGPEYEASKAIEYINGQKDQKQPFALVVSMNPPHTGYELVPDRYKEIYKDLDVEALCKGRPDIPAKGTEMGDYFRNNIRNYYACITGVDENVGRIIEALKQNNLFDNTIVVFTSDHGICMGAHENAGKDIFYEESMRIPMILSWPDQIKPRKSDPLMIAFADLYPTLLSMMGFSKEIPETVQTFDLSNEVLTGKNKKDLVQPYYFVKFDNHATGYRGLRTDRYTYAVHATDGKIDNVILFDRTNDPHEMNNIASQQLKLTHTFNRQLKTWLEKTNDPFAQYIKLKLEHHHHHH | not failed
14 | MDKTKTFCKASLVSIALVLLLVSSAALAATENDTGNATIKDDYVSSTAMANTEGSSLPKVTETQITTSGFHPAIYGNRIVWTDYHDEECNIYMYDLSTKKETQITTSGDVSGSDIYGNRIVWSNYVYPNEVYMYDLSTSQKSTISGYNSYVDSLSIYGDKVVWGDSLDDYVSIFMHDLSTKEETLLTYDAYNPAIYGNRIVWEDRFDDNIYMYDISTKKQTRITNGGAADDPAIYGNRIVYASTHDGNTDIYMYDLSTKKQTQITSSPDAQTHPAIYGNRIVWEDDGGEDDGYTNHGIYMYDISTNQKMKISTKGSAYSPTIYGNNIVWEYYNNENGKLRNLHGHYFRTKTEPSYCCILCIPNFRKNTIKSYFY | failed
15 | NQLIRGRLVVGMVTACTVKPLFDALSAFHVAHPGIEITLTEDSSDRLVERVRAGAIDLALVGTATAPPDGLDAFPIISEGLVAAVPPGHPLAGRSRVTLAELGDHAIVCMPTGTGIRTVFDQACAAAGLRPDIALQASAPDAVADLAIRG | failed
16 | SDLPDSASRVFCGRILSMVNTDDVNAIILAQKNMLDRFEKTNEMLLNFNNLSSARLQQMSERFLHHTRTLVEMKRDLDSIFRRIRTLKGKLARQHPEAFSHIPEASFLEEEDEDPIPPSTTTTIATSEQSTGSCDTSPDTVSPSLSPGFEDLSHVQAGSPAINGRSQTDDEEMTGE | failed
17 | MMNDRFTRIKWLVGEEKFQKISQTKVLVCGLGGVGGICVDALYRSGFKNLTLIDADKFEITNQNRQIHSENIGEEKAKVFERIYKVKGIVSKIDENFLKNFDLSEFDLIIDAIDDIPAKVALAHLIDFKKQIFISSTGGARKLDPTRIKTTSIFKTHGDALAKKFRYELRKSGFKGNFDVVFSDEEAHCKDLGSFMGVTASFGLALASLALRKVLAKKS | failed
